Earlier results as cited in publication PMC3433420.
Like-named read-outs stand apart in the source and are kept apart here.

Legend:
Conditions in all cases: cited from earlier work
BLK (Homo sapiens) [1] = biological target: BLK (Homo sapiens) (UniProt P51451)
CRK (Homo sapiens) = CRK (Homo sapiens) (UniProt P46108)
PLCG1-NC (Homo sapiens) = PLCG1-NC (Homo sapiens) (UniProt P19174)
SLA2 (Homo sapiens) = SLA2 (Homo sapiens) (UniProt Q9H6Q3)
SRC (Homo sapiens) = SRC (Homo sapiens) (UniProt P12931)
PIK3R2-NC (Homo sapiens) [2] = biological target: PIK3R2-NC (Homo sapiens) (UniProt O00459)
CRKL (Homo sapiens) [3] = biological target: CRKL (Homo sapiens) (UniProt P46109)
RASA1-NC (Homo sapiens) [4] = biological target: RASA1-NC (Homo sapiens) (UniProt P20936)
BLK (Homo sapiens) [5] = biological target: BLK (Homo sapiens) (UniProt P51451); remark: listed apart in the source
ABL2 (Homo sapiens) = ABL2 (Homo sapiens) (UniProt P42684)
RASA1-N (Homo sapiens) = RASA1-N (Homo sapiens) (UniProt P20936)
SHC1-PTB (Homo sapiens) [6] = biological target: SHC1-PTB (Homo sapiens) (UniProt P29353)
CRKL (Homo sapiens) [7] = biological target: CRKL (Homo sapiens) (UniProt P46109); remark: listed apart in the source
PLCG1-C (Homo sapiens) = PLCG1-C (Homo sapiens) (UniProt P19174)
PIK3R1-NC (Homo sapiens) = PIK3R1-NC (Homo sapiens) (UniProt P27986)
SHC3 (Homo sapiens) = SHC3 (Homo sapiens) (UniProt Q92529)
NCK2 (Homo sapiens) = NCK2 (Homo sapiens) (UniProt O43639)
PIK3R2-NC (Homo sapiens) [8] = biological target: PIK3R2-NC (Homo sapiens) (UniProt O00459); remark: listed apart in the source
BCAR3 (Homo sapiens) [9] = biological target: BCAR3 (Homo sapiens) (UniProt O75815)
HSH2D (Homo sapiens) = HSH2D (Homo sapiens) (UniProt Q96JZ2)
HCK (Homo sapiens) = HCK (Homo sapiens) (UniProt P08631)
GRB7 (Homo sapiens) = GRB7 (Homo sapiens) (UniProt Q14451)
BLK (Homo sapiens) [10] = biological target: BLK (Homo sapiens) (UniProt P51451); remark: listed apart in the source
BLK (Homo sapiens) [11] = biological target: BLK (Homo sapiens) (UniProt P51451); remark: listed apart in the source
PLCG2-NC (Homo sapiens) = PLCG2-NC (Homo sapiens) (UniProt P16885)
SH2D3A (Homo sapiens) = SH2D3A (Homo sapiens) (UniProt Q9BRG2)
BCAR3 (Homo sapiens) [12] = biological target: BCAR3 (Homo sapiens) (UniProt O75815); remark: listed apart in the source
SHC1-PTB (Homo sapiens) [13] = biological target: SHC1-PTB (Homo sapiens) (UniProt P29353); remark: listed apart in the source
CRKL (Homo sapiens) [14] = biological target: CRKL (Homo sapiens) (UniProt P46109); remark: listed apart in the source
SH2D3C (Homo sapiens) = SH2D3C (Homo sapiens) (UniProt Q8N5H7)
RASA1-NC (Homo sapiens) [15] = biological target: RASA1-NC (Homo sapiens) (UniProt P20936); remark: listed apart in the source

Chain of CRKL (Homo sapiens) (P46109 9-107): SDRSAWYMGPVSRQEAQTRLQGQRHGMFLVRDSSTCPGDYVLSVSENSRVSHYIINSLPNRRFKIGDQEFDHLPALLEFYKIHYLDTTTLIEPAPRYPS
Chain of BLK (Homo sapiens) (P51451 119-225): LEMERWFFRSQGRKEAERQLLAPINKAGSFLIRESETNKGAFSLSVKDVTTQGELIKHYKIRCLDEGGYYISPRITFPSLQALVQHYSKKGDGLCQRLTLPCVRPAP
Chain of SHC1-PTB (Homo sapiens) (P29353 483-583): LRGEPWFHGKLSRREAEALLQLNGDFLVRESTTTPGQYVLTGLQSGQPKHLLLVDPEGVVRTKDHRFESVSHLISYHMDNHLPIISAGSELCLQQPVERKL
Chain of PIK3R2-NC (Homo sapiens) (O00459 325-721): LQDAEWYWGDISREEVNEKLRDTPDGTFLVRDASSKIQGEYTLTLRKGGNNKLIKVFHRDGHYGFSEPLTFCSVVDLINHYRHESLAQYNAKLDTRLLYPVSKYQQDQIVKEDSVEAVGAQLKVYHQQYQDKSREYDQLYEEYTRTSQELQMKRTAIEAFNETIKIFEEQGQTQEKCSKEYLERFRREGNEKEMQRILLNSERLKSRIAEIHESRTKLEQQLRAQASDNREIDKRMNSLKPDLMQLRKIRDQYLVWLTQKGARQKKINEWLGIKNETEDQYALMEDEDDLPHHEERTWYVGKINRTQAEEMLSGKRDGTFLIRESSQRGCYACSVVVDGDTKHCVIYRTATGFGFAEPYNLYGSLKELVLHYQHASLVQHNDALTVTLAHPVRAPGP
Chain of BCAR3 (Homo sapiens) (O75815 149-258): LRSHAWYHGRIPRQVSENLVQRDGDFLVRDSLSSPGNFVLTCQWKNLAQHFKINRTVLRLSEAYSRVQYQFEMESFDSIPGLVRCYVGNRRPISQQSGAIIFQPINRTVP
Chain of RASA1-NC (Homo sapiens) (P20936 176-446): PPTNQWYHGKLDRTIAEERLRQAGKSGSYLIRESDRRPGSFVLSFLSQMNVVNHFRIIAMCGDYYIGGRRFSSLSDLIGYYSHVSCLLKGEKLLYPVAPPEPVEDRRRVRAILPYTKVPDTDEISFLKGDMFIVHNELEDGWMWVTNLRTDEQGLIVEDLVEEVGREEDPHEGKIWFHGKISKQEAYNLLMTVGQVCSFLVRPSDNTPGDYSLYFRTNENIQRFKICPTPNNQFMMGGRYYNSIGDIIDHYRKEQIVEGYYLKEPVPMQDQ
Chain of HCK (Homo sapiens) (P08631 139-246): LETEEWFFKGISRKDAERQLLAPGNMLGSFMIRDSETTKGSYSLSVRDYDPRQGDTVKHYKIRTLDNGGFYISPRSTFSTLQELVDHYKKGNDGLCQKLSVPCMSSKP
Chain of NCK2 (Homo sapiens) (O43639 280-380): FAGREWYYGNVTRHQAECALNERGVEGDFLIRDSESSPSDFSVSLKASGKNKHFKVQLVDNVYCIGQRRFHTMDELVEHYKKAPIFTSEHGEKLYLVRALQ
Chain of ABL2 (Homo sapiens) (P42684 168-268): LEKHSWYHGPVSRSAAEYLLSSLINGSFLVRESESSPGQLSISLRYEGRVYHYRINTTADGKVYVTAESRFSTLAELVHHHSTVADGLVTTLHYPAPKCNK
Chain of PLCG1-NC (Homo sapiens) (P19174 545-761): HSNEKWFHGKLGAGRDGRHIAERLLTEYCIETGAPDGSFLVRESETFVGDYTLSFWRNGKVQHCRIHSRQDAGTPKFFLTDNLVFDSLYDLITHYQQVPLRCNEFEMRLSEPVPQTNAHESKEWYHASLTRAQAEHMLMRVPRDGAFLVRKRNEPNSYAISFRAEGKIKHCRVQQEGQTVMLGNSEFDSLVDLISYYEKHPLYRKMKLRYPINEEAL
Chain of PLCG1-C (Homo sapiens) (P19174 545-761): as above
Chain of PIK3R1-NC (Homo sapiens) (P27986 328-723): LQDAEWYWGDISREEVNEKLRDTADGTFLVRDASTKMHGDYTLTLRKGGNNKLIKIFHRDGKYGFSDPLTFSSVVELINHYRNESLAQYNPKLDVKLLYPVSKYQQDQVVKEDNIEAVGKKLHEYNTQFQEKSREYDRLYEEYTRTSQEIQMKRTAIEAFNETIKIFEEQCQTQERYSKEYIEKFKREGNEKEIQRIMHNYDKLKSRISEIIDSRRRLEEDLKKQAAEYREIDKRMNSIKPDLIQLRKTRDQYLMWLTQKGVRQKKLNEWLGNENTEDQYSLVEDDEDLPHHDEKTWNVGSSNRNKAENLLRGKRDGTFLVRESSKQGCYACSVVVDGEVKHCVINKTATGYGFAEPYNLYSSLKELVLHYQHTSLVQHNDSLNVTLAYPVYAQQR
Chain of CRK (Homo sapiens) (P46108 8-123): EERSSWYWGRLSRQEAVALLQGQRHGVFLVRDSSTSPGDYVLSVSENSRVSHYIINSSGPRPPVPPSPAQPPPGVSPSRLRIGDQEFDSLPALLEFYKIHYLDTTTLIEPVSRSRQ
Chain of SH2D3A (Homo sapiens) (Q9BRG2 10-119): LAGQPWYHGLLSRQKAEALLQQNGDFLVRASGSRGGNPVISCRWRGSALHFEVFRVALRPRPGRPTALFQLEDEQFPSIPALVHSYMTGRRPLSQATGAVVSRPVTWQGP
Chain of PLCG2-NC (Homo sapiens) (P16885 527-740): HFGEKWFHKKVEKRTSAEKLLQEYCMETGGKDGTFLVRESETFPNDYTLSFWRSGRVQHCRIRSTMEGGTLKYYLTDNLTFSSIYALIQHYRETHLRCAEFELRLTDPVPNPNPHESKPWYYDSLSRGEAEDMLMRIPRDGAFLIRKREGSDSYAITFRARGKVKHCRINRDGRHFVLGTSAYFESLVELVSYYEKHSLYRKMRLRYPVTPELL
Chain of HSH2D (Homo sapiens) (Q96JZ2 29-130): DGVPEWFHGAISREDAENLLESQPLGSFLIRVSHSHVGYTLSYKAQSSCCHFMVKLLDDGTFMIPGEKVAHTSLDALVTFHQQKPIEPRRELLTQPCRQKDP
Chain of SH2D3C (Homo sapiens) (Q8N5H7 215-324): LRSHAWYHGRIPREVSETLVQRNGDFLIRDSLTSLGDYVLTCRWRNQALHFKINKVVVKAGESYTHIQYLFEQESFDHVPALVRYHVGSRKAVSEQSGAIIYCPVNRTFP
Chain of SLA2 (Homo sapiens) (Q9H6Q3 89-196): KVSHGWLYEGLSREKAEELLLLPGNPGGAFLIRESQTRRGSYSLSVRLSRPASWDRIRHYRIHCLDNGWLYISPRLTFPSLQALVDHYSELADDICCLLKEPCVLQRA
Chain of SHC3 (Homo sapiens) (Q92529 494-594): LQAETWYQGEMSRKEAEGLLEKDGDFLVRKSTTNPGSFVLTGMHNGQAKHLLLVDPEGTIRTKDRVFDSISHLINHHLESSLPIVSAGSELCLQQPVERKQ
Chain of GRB7 (Homo sapiens) (Q14451 426-532): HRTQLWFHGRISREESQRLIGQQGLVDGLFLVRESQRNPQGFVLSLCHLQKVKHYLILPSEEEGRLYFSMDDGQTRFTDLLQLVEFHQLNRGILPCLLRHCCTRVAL
Chain of RASA1-N (Homo sapiens) (P20936 176-446): as the sequence (P20936 176-446) above

In the case of …pYLVPQQGF, the apparent Kd (screen) (BLK (Homo sapiens) [1]) is listed as 2000 nM, the apparent Kd (screen) (CRK (Homo sapiens)) is listed as 2000 nM and the apparent Kd (screen) (PLCG1-NC (Homo sapiens)) is listed as 2000 nM. The apparent Kd (screen) (SLA2 (Homo sapiens)) was 2000 nM, the apparent Kd (screen) (SRC (Homo sapiens)) was 757 nM and the apparent Kd (screen) (PIK3R2-NC (Homo sapiens) [2]) was 2000 nM. For the same substance, the apparent Kd (screen) (CRKL (Homo sapiens) [3]) was 2000 nM and the apparent Kd (screen) (RASA1-NC (Homo sapiens) [4]) was 2000 nM.

For …pYLIPQQGFd, the apparent Kd (screen) (BLK (Homo sapiens) [5]) is listed as 658 nM, the apparent Kd (screen) (ABL2 (Homo sapiens)) is listed as 282 nM and the apparent Kd (screen) (RASA1-N (Homo sapiens)) is listed as 769 nM. For the same substance, the apparent Kd (screen) (SHC1-PTB (Homo sapiens) [6]) was 628 nM, the apparent Kd (screen) (CRKL (Homo sapiens) [7]) was 998 nM and the apparent Kd (screen) (PLCG1-C (Homo sapiens)) was 2000 nM.

For …pYEEMRAFQ, the apparent Kd (screen) (PIK3R1-NC (Homo sapiens)) is given as 49 nM, the apparent Kd (screen) (SHC3 (Homo sapiens)) is given as 123 nM and the apparent Kd (screen) (NCK2 (Homo sapiens)) is given as 1370 nM. The apparent Kd (screen) (PIK3R2-NC (Homo sapiens) [8]) was 86 nM, the apparent Kd (screen) (BCAR3 (Homo sapiens) [9]) was 2000 nM and the apparent Kd (screen) (HSH2D (Homo sapiens)) was 2000 nM. The apparent Kd (screen) (HCK (Homo sapiens)) was 499 nM.

For …pYWDQDPPE, the apparent Kd (screen) (GRB7 (Homo sapiens)) is given as 2000 nM, the apparent Kd (screen) (BLK (Homo sapiens) [10]) is given as 52 nM and the apparent Kd (screen) (BLK (Homo sapiens) [11]) is given as 2000 nM. For the same substance, the apparent Kd (screen) (PLCG2-NC (Homo sapiens)) was 263 nM, the apparent Kd (screen) (SH2D3A (Homo sapiens)) was 1600 nM and the apparent Kd (screen) (BCAR3 (Homo sapiens) [12]) was 2000 nM. For the same substance, the apparent Kd (screen) (SHC1-PTB (Homo sapiens) [13]) was 614 nM, the apparent Kd (screen) (CRKL (Homo sapiens) [14]) was 1460 nM and the apparent Kd (screen) (SH2D3C (Homo sapiens)) was 705 nM. For the same substance, the apparent Kd (screen) (RASA1-NC (Homo sapiens) [15]) was 2000 nM.
